Substitutions are numbered along the chain they refer to.
T1: human Fzd10 hinge region (human)
T1 construct: also called hFzd10L
T1 peptide: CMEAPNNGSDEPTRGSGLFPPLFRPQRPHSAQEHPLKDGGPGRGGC

T2: mouse Fzd3 hinge region (mouse, UniProt Q61086 133-165, limits assumed)
T2 construct: domain: hinge region; also called mFzd3L
T2 peptide (looked up): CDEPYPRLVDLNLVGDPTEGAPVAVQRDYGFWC

T3: mouse Fzd4 hinge region (mouse, UniProt Q61088 158-181, limits assumed)
T3 construct: domain: hinge region; also called mFzd4L
T3 peptide (looked up): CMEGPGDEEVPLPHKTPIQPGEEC

T4: mouse Fzd5 hinge region (mouse, UniProt Q9EQD0 147-182, limits assumed)
T4 construct: domain: hinge region; also called mFzd5L
T4 peptide (looked up): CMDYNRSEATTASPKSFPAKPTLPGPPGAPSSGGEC

T5: mouse Fzd6 hinge region (mouse, UniProt Q61089 129-161, limits assumed)
T5 construct: domain: hinge region; also called mFzd6L
T5 peptide (looked up): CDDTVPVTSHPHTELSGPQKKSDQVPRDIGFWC

T6: mouse Fzd7 hinge region (mouse, UniProt Q61090 160-208, limits assumed)
T6 construct: domain: hinge region; also called mFzd7L
T6 peptide (looked up): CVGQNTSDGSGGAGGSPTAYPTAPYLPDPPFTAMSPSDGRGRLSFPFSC

T7: mouse Fzd8 hinge region (mouse, UniProt Q61091 148-225, limits assumed)
T7 construct: domain: hinge region; also called mFzd8L; mFzd8
T7 sequence (peptide, looked up): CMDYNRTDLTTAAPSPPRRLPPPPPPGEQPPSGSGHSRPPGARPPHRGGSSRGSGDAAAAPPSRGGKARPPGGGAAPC

T8: mouse Fzd9 hinge region (mouse, UniProt Q9R216 153-197, limits assumed)
T8 construct: domain: hinge region; also called mFzd9
T8 peptide (looked up): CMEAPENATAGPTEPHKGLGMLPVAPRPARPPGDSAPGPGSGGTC

T9: human Fzd2 hinge region (human)
T9 construct: also called hFzd2L
T9 peptide: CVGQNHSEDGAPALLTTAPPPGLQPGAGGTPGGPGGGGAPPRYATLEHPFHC

T10: mouse Fzd10 hinge region (mouse, UniProt Q8BKG4 148-193, limits assumed)
T10 construct: domain: hinge region; also called mFzd10L
T10 peptide (looked up): T1 peptide with T13S, L18M, G44A

T11: human Fzd3 hinge region (human)
T11 construct: also called hFzd3L
T11 peptide: T2 peptide (looked up) with V14A, D16E

T12: human Fzd4 hinge region (human)
T12 construct: also called hFzd4L
T12 peptide: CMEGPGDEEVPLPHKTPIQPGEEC

T13: human Fzd5 hinge region (human)
T13 construct: also called hFzd5L
T13 peptide: T4 peptide (looked up) with S13P, K15R, S16P, S31A

T14: human Fzd6 hinge region (human)
T14 construct: also called hFzd6L
T14 peptide: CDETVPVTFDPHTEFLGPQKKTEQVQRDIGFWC

T15: human Fzd9 hinge region (human)
T15 construct: also called hFzd9L; hFzd9
T15 peptide: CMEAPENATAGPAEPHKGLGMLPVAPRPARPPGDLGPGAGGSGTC

T16: human Fzd1 hinge region (human)
T16 construct: also called hFzd1L
T16 peptide: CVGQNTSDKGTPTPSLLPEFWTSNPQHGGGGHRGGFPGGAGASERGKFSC

T17: mouse Fzd1 hinge region (mouse, UniProt O70421 222-271, limits assumed)
T17 construct: domain: hinge region; also called mFzd1L
T17 peptide (looked up): T16 peptide with H32Y, F36Y, A42T, S43V

B1: 033S-E02 (antibody, V domains shown)
VH: QVQLVQSGAEVKKPGSSVKVSCKASGGTFTSYAISWVRQAPGQGLEWMGMINPSGGRTTYAQKFQGRVTITADESTSTAYMKLSSLRSEDTAVYYCAIRTIFGVVIDYWGQGTLVTVSS
VL: not shown
notes: human IgG1, human kappa or lambda light chain; also called 33SE2
B2: 033S-E02 Fab (Fab, V domains shown)
VH: B1 VH
VL: not shown
notes: also called 33SE2
B3: 033S-D02 (antibody, V domains shown)
VH: QVQLVQSGAEVKKPGSSVKVSCKASGITFTSSAVHWVRQAPGQGLEWLGIINPSGGSTSYAQKFQGRVTITADESTSTAYMELSSLRSEDTAVYYCARRMVYAPYKDVWGKGTMVTVSS
VL: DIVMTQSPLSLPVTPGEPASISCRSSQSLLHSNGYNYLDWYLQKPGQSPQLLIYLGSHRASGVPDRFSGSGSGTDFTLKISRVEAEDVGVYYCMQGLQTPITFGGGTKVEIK
notes: human IgG1, human kappa or lambda light chain; also called 33SD2
B4: 033S-D02 Fab (Fab, V domains shown)
VH: B3 VH
VL: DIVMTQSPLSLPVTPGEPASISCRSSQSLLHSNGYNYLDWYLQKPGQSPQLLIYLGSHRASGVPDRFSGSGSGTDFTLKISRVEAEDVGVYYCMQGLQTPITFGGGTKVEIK
notes: also called 33SD2
B5: 031S-B02 (antibody, V domains shown)
VH: EVQLLESGGGLVQPGGSLRLSCAASGFTFSSYWMSWVRQAPGKGLEWVSAIGGSGANAYYADSVKGRFTISRDNSKNTLYLQMNSLRAEDTAVYYCVRDTNWAFDLWGQGTMVTVSS
VL: EIVMTQSPATLSVSPGERATLSCRASQSVSGSYLAWYQQKPGQAPRLLIYGASTRATGIPARFSGSGSGTEFTLTISSLQSEDFAVYYCQQYGSSPLTFGQGTKVEIK
notes: also called 31SB2
B6: 033S-B03 (antibody, V domains shown)
VH: QVQLVQSGAEVKKPGSSVKVSCKASGYTFTGQYMHWVRQAPGQGLEWMGGIIPIFGTAHYPQKFQGRVTITADESTSTAYMELSSLRSEDTAVYYCARRSVAAGTPFTDYWGQGTLVTVSS
VL: not shown
notes: human IgG1, human kappa or lambda light chain; also called 33SB3
B7: 033S-B03 Fab (Fab, V domains shown)
VH: B6 VH
VL: not shown
notes: also called 33SB3

Assays:
human Fzd10 hinge region = biological target: T1, human Fzd10 hinge region; experiment: SPR
Description: (§1) Certain VL and VH clones from Table 1 were PCR amplified from the phage clone and sub-cloned into pcDNA3.1 based mammalian expression vectors (Invitrogen/ThermoFisher) of human kappa or lambda light chain and human IgG1 heavy chain, respectively. Candidate IgGs were purified using Protein A affinity resin. The candidate library was captured on an anti-FC lawn. The capture lawn was prepared by direct amine coupling goat anti-human IgG Fc (Southern Biotech #2048-01) at 8000 RU on a HC200M Carterra sensor chip (Carterra 4297). Capture levels were at least 600 RU for each candidate IgG. Binding to all target peptides was measured at 25° by injecting a concentration series of each peptide in 1×PBST+0.5 mg/mL BSA (TEKnova P1192, VWR V0332). All peptides were injected at 4.12 nM, 12.3 nM, 37 nM, 111 nM, 333 nM, and 1000 nM. Two blank injections were run between each peptide concentration series. Each injection started with a one minute baseline determination, followed by a five minute association phase where peptides were injected, and finished with a 10 minute dissociation phase. Binding data was analyzed using NextGenKIT (Carterra). Blank injections and reference locations were subtracted from all runs prior to fitting a 1:1 binding model to the data. […] Interactions with an Rₘₐₓ less than 15 RU or weaker than 5 μM were considered non-binders.

mouse Fzd2 hinge region = biological target: T18, mouse Fzd2 hinge region (mouse, UniProt Q9JIP6 155-206, limits assumed); experiment: SPR
T18 construct: domain: hinge region; also called mFzd2L
Description: as §1

mouse Fzd3 hinge region = biological target: T2, mouse Fzd3 hinge region; experiment: SPR
Description: as §1

mouse Fzd4 hinge region = biological target: T3, mouse Fzd4 hinge region; experiment: SPR
Description: as §1

mouse Fzd5 hinge region = biological target: T4, mouse Fzd5 hinge region; experiment: SPR
Description: as §1

mouse Fzd6 hinge region = biological target: T5, mouse Fzd6 hinge region; experiment: SPR
Description: as §1

mouse Fzd7 hinge region = biological target: T6, mouse Fzd7 hinge region; experiment: SPR
Description: as §1

mouse Fzd8 hinge region = biological target: T7, mouse Fzd8 hinge region; experiment: SPR
Description: as §1

mouse Fzd9 hinge region = biological target: T8, mouse Fzd9 hinge region; experiment: SPR
Description: as §1

human Fzd2 hinge region = biological target: T9, human Fzd2 hinge region; experiment: SPR
Description: as §1

mouse Fzd10 hinge region = biological target: T10, mouse Fzd10 hinge region; experiment: SPR
Description: as §1

human Fzd3 hinge region = biological target: T11, human Fzd3 hinge region; experiment: SPR
Description: as §1

human Fzd4 hinge region = biological target: T12, human Fzd4 hinge region; experiment: SPR
Description: as §1

human Fzd5 hinge region = biological target: T13, human Fzd5 hinge region; experiment: SPR
Description: as §1

human Fzd6 hinge region = biological target: T14, human Fzd6 hinge region; experiment: SPR
Description: as §1

human Fzd9 hinge region = biological target: T15, human Fzd9 hinge region; experiment: SPR
Description: as §1

human Fzd1 hinge region [1] = biological target: T16, human Fzd1 hinge region; experiment: SPR; *** = 100 nM > KD > 10 nM
Description: as §1

mouse Fzd1 hinge region [2] = biological target: T17, mouse Fzd1 hinge region; experiment: SPR; *** = 100 nM > KD > 10 nM
Description: as §1

Fzd1 CRD = Fzd1 CRD (UniProt Q9UP38 105-232); experiment: BLI (Octet Red 96), biotinylated Fzd1 CRD on streptavidin biosensor
Description: Binding kinetics of monospecific Fzd binders to either (CRD) or the extracellular hinge region (hinge) was determined by bio-layer interferometry (BLI) using Octet Red 96 (PALL ForteBio, Fremont, Calif.) instruments at 30° C., 1000 rpm with streptavidin (SA) biosensors. N-terminal biotinylated Fzd1 or Fzd2 CRD and Fzd1 or Fzd 2 hinge proteins were captured on the SA biosensor. Following capture of biotinylated-Fzd1 or Fzd2, the SA biosensor with captured […] was dipped into wells containing the relevant antibodies at 7 different concentrations in running buffer plus a well with only running buffer as a reference channel. KD was determined by global fitting. As shown in FIGS. 4A-4H these antibody fusion proteins only bound to either Fzd1 or Fzd2 protein with the hinge region, and not to the CRD domains alone.

human Fzd1 hinge region [3] = biological target: T16, human Fzd1 hinge region; experiment: SPR; ** = 1 uM > KD > 100 nM
Description: as §1

mouse Fzd1 hinge region [4] = biological target: T17, mouse Fzd1 hinge region; experiment: SPR; ** = 1 uM > KD > 100 nM
Description: as §1

hFzd2L = biological target: T19, hFzd2L (human, UniProt Q14332 150-201); experiment: phage ELISA, antigen on plate
T19 construct: ELISA antigen; also called human Fzd2 hinge region; Frizzled 2
Description: Detection of bound phage was determined calorimetrically by turnover of TMB substrate (Thermo Fisher Scientific, Waltham, Mass.) at […] by anti-M13-HRP antibody (GE Healthcare, Pittsburgh, Pa.). Clones were identified as binding to a Fzd receptor when the fold OD 450 nm over background was greater than a threshold level.

human Fzd1 hinge region [5] = biological target: T16, human Fzd1 hinge region; experiment: SPR; **** = 10 nM > KD
Description: as §1

mouse Fzd1 hinge region [6] = biological target: T17, mouse Fzd1 hinge region; experiment: SPR; **** = 10 nM > KD
Description: as §1

Row | Binder | binding result (human Fzd10 hinge region) | binding result (mouse Fzd2 hinge region) | binding result (mouse Fzd3 hinge region) | binding result (mouse Fzd4 hinge region) | binding result (mouse Fzd5 hinge region) | binding result (mouse Fzd6 hinge region) | binding result (mouse Fzd7 hinge region) | binding result (mouse Fzd8 hinge region) | binding result (mouse Fzd9 hinge region) | binding result (human Fzd2 hinge region) | binding result (mouse Fzd10 hinge region) | binding result (human Fzd3 hinge region) | binding result (human Fzd4 hinge region) | binding result (human Fzd5 hinge region) | binding result (human Fzd6 hinge region) | binding result (human Fzd9 hinge region) | binding result (Fzd1 CRD) | further results
1 | B1 | no binding (tested: 5 uM) | no binding (tested: 5 uM) | no binding (tested: 5 uM) | no binding (tested: 5 uM) | no binding (tested: 5 uM) | no binding (tested: 5 uM) | no binding (tested: 5 uM) | no binding (tested: 5 uM) | no binding (tested: 5 uM) | no binding (tested: 5 uM) | no binding (tested: 5 uM) | no binding (tested: 5 uM) | no binding (tested: 5 uM) | no binding (tested: 5 uM) | no binding (tested: 5 uM) | no binding (tested: 5 uM) | – | KD (human Fzd1 hinge region [1]): 10 to 100 nM; KD (mouse Fzd1 hinge region [2]): 10 to 100 nM
2 | B2 | – | – | – | – | – | – | – | – | – | – | – | – | – | – | – | – | no binding | –
3 | B3 | no binding (tested: 5 uM) | no binding (tested: 5 uM) | no binding (tested: 5 uM) | no binding (tested: 5 uM) | no binding (tested: 5 uM) | no binding (tested: 5 uM) | no binding (tested: 5 uM) | no binding (tested: 5 uM) | no binding (tested: 5 uM) | no binding (tested: 5 uM) | no binding (tested: 5 uM) | no binding (tested: 5 uM) | no binding (tested: 5 uM) | no binding (tested: 5 uM) | no binding (tested: 5 uM) | no binding (tested: 5 uM) | – | KD (human Fzd1 hinge region [3]): 100 to 1000 nM; KD (mouse Fzd1 hinge region [4]): 100 to 1000 nM
4 | B4 | – | – | – | – | – | – | – | – | – | – | – | – | – | – | – | – | no binding | –
5 | B5 | – | – | – | – | – | – | – | – | – | – | – | – | – | – | – | – | – | binding result (hFzd2L): binds
6 | B6 | no binding (tested: 5 uM) | no binding (tested: 5 uM) | no binding (tested: 5 uM) | no binding (tested: 5 uM) | no binding (tested: 5 uM) | no binding (tested: 5 uM) | no binding (tested: 5 uM) | no binding (tested: 5 uM) | no binding (tested: 5 uM) | no binding (tested: 5 uM) | no binding (tested: 5 uM) | no binding (tested: 5 uM) | no binding (tested: 5 uM) | no binding (tested: 5 uM) | no binding (tested: 5 uM) | no binding (tested: 5 uM) | – | KD (human Fzd1 hinge region [5]): < 10 nM; KD (mouse Fzd1 hinge region [6]): < 10 nM
7 | B7 | – | – | – | – | – | – | – | – | – | – | – | – | – | – | – | – | no binding | –
